Reference: PMC5470993, “Discovery and characterization of small molecule Rac1 inhibitors” (Oncotarget, 2017)

Biological target: Recombinant Rac1 (1-192aa), His-tagged fusion protein (UniProt P63000 1-192)
Experiment: pull-down; cell-free: 5 μg purified His-Rac1 in 20 μl GTP binding buffer (20 mM Tris-HCl pH 7.6, 100 mM NaCl, 2 mM MgCl2, 1 mM DTT) with 1% BSA, GTP-γS (0.01-10 μM, or 200 nM after 1 h with compound #1 or #6) for 10 min at room temperature, then 1 h with GST-PAK1 on agarose beads; Rac1 immunoblot
Conditions: both partners purified

binding result: binds
B1: GST-PAK1-PBD (70-117aa) (domain or fragment)
chain: KERPEISLPSDFEHTIHVGFDAVTGEFTGMPEQWARLLQTSNITKSEQ
notes: Held on glutathione/agarose beads; The methods also name a Rac1/Cdc42 assay kit (Upstate Biotechnology); also called GST-PAK1 (RBD); source: E. coli DH5α, purified on glutathione resin; plasmid from Addgene
